Laboratory results from EP0501215B1.

Target: CEA (Carcinoembryonic Antigen) (UniProt P06731)
Test: competition ELISA on CEA-coated plates; competitor of murine MAK BW 431/26 (5 ng/ml)

Chain of UniProt P06731 (P06731 35-685 limits assumed): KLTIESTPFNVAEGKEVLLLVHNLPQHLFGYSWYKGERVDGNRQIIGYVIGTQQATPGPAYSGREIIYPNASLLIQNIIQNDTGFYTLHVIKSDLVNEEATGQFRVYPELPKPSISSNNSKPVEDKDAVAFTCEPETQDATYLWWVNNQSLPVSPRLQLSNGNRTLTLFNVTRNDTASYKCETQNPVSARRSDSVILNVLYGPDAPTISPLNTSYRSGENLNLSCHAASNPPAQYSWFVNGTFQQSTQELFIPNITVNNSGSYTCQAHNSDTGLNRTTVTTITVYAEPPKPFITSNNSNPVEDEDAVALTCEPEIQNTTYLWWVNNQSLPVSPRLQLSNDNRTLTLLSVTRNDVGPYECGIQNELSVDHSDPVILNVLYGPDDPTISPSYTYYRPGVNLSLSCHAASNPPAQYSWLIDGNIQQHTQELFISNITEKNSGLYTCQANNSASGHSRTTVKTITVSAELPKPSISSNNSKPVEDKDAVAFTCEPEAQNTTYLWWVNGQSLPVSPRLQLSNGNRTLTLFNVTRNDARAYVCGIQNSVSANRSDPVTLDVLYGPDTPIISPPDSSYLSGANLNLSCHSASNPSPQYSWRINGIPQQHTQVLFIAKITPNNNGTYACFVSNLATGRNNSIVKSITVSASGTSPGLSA

Q: Which molar excess of competitor for 50 % inhibition does the source give for humanized MAK BW 431/26 (antibody) here?
A: Its molar excess of competitor for 50 % inhibition is 200 molar excess.
